Reference: the supplement of paper PMC9170038

Tested on: MS2 coat protein
Assay: apparent KD of MS2 coat protein; designed switch direction (-1 OFF switch, 1 ON switch): 1; higher = weaker reporter binding
Outline: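 Stalled E. coli RNA polymerase transcribed designed RNA switches on Illumina chips, which were then titrated with SNAP-549-labelled MS2 coat protein, doubling from 0.7 or 1.5 nM to 3 µM. Steps lasted from 0.8–1.5 h at the lowest concentration to 10–20 min at the highest. The apparent KD is each design's median over clusters of curve-fitted normalised fluorescence.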

[1] = input ligand: microRNA oligo, concentration not stated
[2] = Eterna round: R95, input ligand: FMN 200 uM
[3] = Eterna round: R95, input ligand: microRNA oligo, concentration not stated
[4] = Eterna round: R95, input ligand: none

Sequence	apparent KD of MS2 coat protein (input ligand: FMN 200 uM)	apparent KD of MS2 coat protein [1]	apparent KD of MS2 coat protein (input ligand: none)	apparent KD of MS2 coat protein [2]	apparent KD of MS2 coat protein [3]	apparent KD of MS2 coat protein [4]
GUACAGAUCAGAGGAUAUCACGUCGAUUAGACGUGAGAAGGCUGAUCACACAUGAAUAUUAGUACAUGAGGAUCACCCAUGUAC [SSNG1/15-A2] (Eterna round: R96, puzzle: Same State NG 1)	14 nM	12.5 nM	16.7 nM	–	–	–
GUAGCAUACCGAGGAUAUUCAAACCGGAAACGGACAUGAGGAUCACCCAUGUGGCGAAAGCCUUGGGAGAAGGCGGAAUGCUAC [Xeonanis - 20 Mod76] (Eterna round: R96, puzzle: Same State NG 2)	6.08 nM	21.7 nM	19.1 nM	–	–	–
GUAGCAUACCGAGGAUAUUCAUAUUAUACAUGAGGAUCACCCAUGUUAGGCCGAUUACGGCCUUGGGAGAAGGCGGAAUGCUAC [Xeonanis - 20 Mod20] (Eterna round: R96, puzzle: Same State NG 2)	21.8 nM	53.3 nM	75 nM	–	–	–
GUGCUCGUGUAAGGAUAUGCAGCCGUUUCGGCUGCAGAAGGUACUAUAAUACAUGAGGAUCACCCAUGUCUCUUUUGUUUGGUG [salish99_SSNG1_r04_907] (Eterna round: R96, puzzle: Same State NG 1)	234 nM	111 nM	222 nM	–	–	–
GUGCUCGUGUGAGGAUAUGCCGCCGUUUCGGCUGCAGAAGGUGCUACGUUACAUGAGGAUCACCCAUGUCUCUGUUGUUUCGUG [salish99_SSNG1_r04_943] (Eterna round: R96, puzzle: Same State NG 1)	–	17.9 nM	–	–	–	–
GUGGAGAAUUAAGGAUAUCGAGUCAAGAUGUUAAACAUGAGGAUCACCCAUGUGGGUUGCGGUAUCGAGAAGGUAAAUUACGGG [salish99_SSNG2_r04_504] (Eterna round: R96, puzzle: Same State NG 2)	28.3 nM	25.1 nM	34.1 nM	–	–	–
GUGGAGAAUUAAGGAUAUUGAAUACAUAUGUUUAACAUGAGGAUCACCCAUGUGGGUUGCGGUAUCGAGAAGGUAAAUUACUGG [salish99_SSNG2_r04_033] (Eterna round: R96, puzzle: Same State NG 2)	126 nM	74.3 nM	110 nM	–	–	–
GUGGAGGGUUGAGGAUAUUGAUUACAUAUGUUUAACAUGAGGAUCACCCAUGUGGGUUGCGGUUUCGAGAAGGUAGGUUGCUGG [salish99_SSNG2_r04_041] (Eterna round: R96, puzzle: Same State NG 2)	196 nM	79.5 nM	132 nM	–	–	–
GUGGCGGGUUGAGGAUAUUGGUUGCCGCUGUUUUACAUGAGGAUCACCCAUGUGGGUUGCGGUUUCGAGAAGGGAGGUUGCUGG [salish99_SSNG2_r04_055] (Eterna round: R96, puzzle: Same State NG 2)	14.2 nM	11.7 nM	17.6 nM	–	–	–
GUGGCGGGUUGAGGAUAUUGGUUGCCUCUGUUUUACAUGAGGAUCACCCAUGUGGGUUGCGGUUUCGAGAAGGGAGGUUGCUGG [salish99_SSNG2_r04_054] (Eterna round: R96, puzzle: Same State NG 2)	323 nM	420 nM	399 nM	–	–	–
GUGGUCAGACAUGAGGAUCACCCAUGUGGAAUAAAUAACGACUAGGAUAUAUAAUAUAGGAUAUAAUAGAAGGAGUGAUUGGUG (Eterna round: R96, puzzle: Same State NG 3)	72.3 nM	49.5 nM	58.8 nM	–	–	–
GUGGUCAGACAUGAGGAUCACCCAUGUGGAAUAAAUAACGGACAGGAUAUUGAAUAUAGGAUAUACAAGAAGGGUUGAUUGGUG (Eterna round: R96, puzzle: Same State NG 3)	83.6 nM	47.7 nM	73.9 nM	–	–	–
GUGGUCAGACAUGAGGAUCACCCAUGUGGAAUAAAUAAGGAAGAGGAUAUCGAAUAUAGGAUAUACGAGAAGGUUUGGUUGGUG (Eterna round: R96, puzzle: Same State NG 3)	117 nM	77.5 nM	94.6 nM	–	–	–
GUGGUCAGACAUGAGGAUCACCCAUGUGGAAUAAAUAAGGGUUAGGAUAUCGAAUAUAGGAUAUACGAGAAGGGAUGGUUGGUG (Eterna round: R96, puzzle: Same State NG 3)	135 nM	95.3 nM	109 nM	–	–	–
GUGGUCAGACAUGAGGAUCACCCAUGUGGAAUAAAUAAGGUUUAGGAUAUGGAAUAUAGGAUAUACCAGAAGGAAGGGUUGGUG (Eterna round: R96, puzzle: Same State NG 3)	–	95.2 nM	–	–	–	–
GUGGUCCUCACAGGAUAUCAGCGGCCUUCACGCUGAGAAGGGUGACUGGGCUACAAGGCUAUAGACAUGAGGAUCACCCAUGUA [Direbe] (Eterna round: R96, puzzle: Same State NG 1)	194 nM	110 nM	194 nM	–	–	–
GUUAAACAUGAGGAUCACCCAUGUCAAUGUAGUCGAGGAUAUGGGCAGCUAUGAGGCGUACUAGAAGGCGAUGAGU [Mat - Same State 1 - Mod of JL - D14] (puzzle: Same State 1)	–	–	–	38.6 nM	133 nM	150 nM
GUUAAACAUGAGGAUCACCCAUGUCAAUGUAGUCGAGGAUAUGGGUAGCUAUGAGGCGUACUAGAAGGCGAGGAGU [Mat - Same State 1 - Mod of JL - D16] (puzzle: Same State 1)	–	–	–	194 nM	57.1 nM	164 nM
GUUACAUGAGGAUCACCCAUGUAUGUGUGGGAGUAAGUGUCUUAGGAUAUCUAGUAUUCAAUUUAAGAGAAGGAAGAUUGUUGU [JMF's solution 58] (Eterna round: R96, puzzle: Same State NG 3)	109 nM	64.2 nM	93.9 nM	–	–	–
GUUACAUGAGGAUCACCCAUGUAUGUGUGGGAGUAAGUGUCUUAGGAUAUCUAGUAUUUAAUUAAAGAGAAGGAAGAUUGUUGU [JMF's solution 66] (Eterna round: R96, puzzle: Same State NG 3)	126 nM	74.6 nM	116 nM	–	–	–
GUUACAUGAGGAUCACCCAUGUAUGUGUGGGAGUAAGUGUCUUAGGAUAUCUAUAAUUUAAAUUAAGAGAAGGAAGAUUGUUGU [JMF's solution 10] (Eterna round: R96, puzzle: Same State NG 3)	121 nM	69.4 nM	115 nM	–	–	–
GUUACAUGAGGAUCACCCAUGUAUGUGUGGGAGUAAGUGUCUUAGGAUAUCUAUCAUUUGAUUUAAGAGAAGGAAGAUUGUUGU [JMF's solution 94] (Eterna round: R96, puzzle: Same State NG 3)	116 nM	96.1 nM	115 nM	–	–	–
GUUACAUGAGGAUCACCCAUGUAUGUGUGGGAGUAAGUGUCUUAGGAUAUCUAUUAUUUAAUUAAAGAGAAGGAAGAUUGUUGU [JMF's solution 25] (Eterna round: R96, puzzle: Same State NG 3)	115 nM	81.2 nM	102 nM	–	–	–
GUUACAUGAGGAUCACCCAUGUAUGUGUGGGAGUAAGUGUCUUAGGAUAUCUAUUAUUUAAUUGAAGAGAAGGAAGAUUGUUGU [JMF's solution 26] (Eterna round: R96, puzzle: Same State NG 3)	160 nM	95 nM	112 nM	–	–	–
GUUACAUGAGGAUCACCCAUGUAUGUGUGGGAGUAAGUGUCUUAGGAUAUCUAUUGUUUAAAUUAAGAGAAGGAAGAUUGUUGU [JMF's solution 13] (Eterna round: R96, puzzle: Same State NG 3)	102 nM	84.3 nM	117 nM	–	–	–
GUUACAUGAGGAUCACCCAUGUAUGUGUGGGAGUAAGUGUCUUAGGAUAUCUGUUAUCUAAUUUAAGAGAAGGAAGAUUGUUGU [JMF's solution 35] (Eterna round: R96, puzzle: Same State NG 3)	162 nM	53.4 nM	87.2 nM	–	–	–
GUUACAUGAGGAUCACCCAUGUAUGUGUGGGAGUAAGUGUCUUAGGAUAUCUGUUAUGUAAUUUAAGAGAAGGAAGAUUGUUGU [JMF's solution 34] (Eterna round: R96, puzzle: Same State NG 3)	282 nM	300 nM	296 nM	–	–	–
